According to the supplement of paper PMC9112550, “Optimization of the antimicrobial peptide Bac7 by deep mutational scanning” (BMC Biology, 2022):

system: Escherichia coli TOP10; test: shrunken log2 fold change of peptide-encoding DNA abundance (4.5 h post-induction vs induction); higher = less antimicrobial activity (less host growth inhibition); details: time post-induction: 4.5 h; library: site-saturation at positions 5, 18, 19, 20
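Note: peptides expressed intracellularly from a pBAD plasmid library in pooled LB shake-flask culture, induced with 0.3% L-arabinose, DNA abundance read by NGS, three biological replicates, DESeq2 with apeglm shrinkage.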

Sequence | shrunken log2 fold change
RRIRQRPPRLPRPRPRPEGDPRP | 0.00223
RRIRQRPPRLPRPRPRPEHAPRP | 0.0519
RRIRQRPPRLPRPRPRPEHKPRP | -0.00178
RRIRQRPPRLPRPRPRPEHMPRP | -0.0877
RRIRQRPPRLPRPRPRPEITPRP | 0.0276
RRIRQRPPRLPRPRPRPEKDPRP | 0.343
RRIRQRPPRLPRPRPRPELMPRP | -0.0508
RRIRQRPPRLPRPRPRPENRPRP | 0.0211
RRIRQRPPRLPRPRPRPEQDPRP | 0.311
RRIRQRPPRLPRPRPRPEQQPRP | -0.0316
RRIRQRPPRLPRPRPRPERDPRP | 0.321
RRIRQRPPRLPRPRPRPERQPRP | -0.0407
RRIRQRPPRLPRPRPRPETCPRP | 0.0408
RRIRQRPPRLPRPRPRPETGPRP | 0.0496
RRIRQRPPRLPRPRPRPETPPRP | 0.495
RRIRQRPPRLPRPRPRPETQPRP | 0.0133
RRIRQRPPRLPRPRPRPEVNPRP | -0.142
RRIRQRPPRLPRPRPRPEWSPRP | 0.0925
RRIRQRPPRLPRPRPRPEWYPRP | 0.0539
RRIRQRPPRLPRPRPRPEYPPRP | -0.22
RRIRQRPPRLPRPRPRPFAAPRP | 0.336
RRIRQRPPRLPRPRPRPFACPRP | -0.111
RRIRQRPPRLPRPRPRPFADPRP | -0.0142
RRIRQRPPRLPRPRPRPFARPRP | -0.0149
RRIRQRPPRLPRPRPRPFCPPRP | -0.236

Sequence | shrunken log2 fold change
RRIRQRPPRLPRPRPRPFEHPRP | -0.00133
RRIRQRPPRLPRPRPRPFEQPRP | 0.106
RRIRQRPPRLPRPRPRPFGRPRP | 0.037
RRIRQRPPRLPRPRPRPFKIPRP | -0.00995
RRIRQRPPRLPRPRPRPFKYPRP | -0.0224
RRIRQRPPRLPRPRPRPFLCPRP | -0.336
RRIRQRPPRLPRPRPRPFMDPRP | 0.0499
RRIRQRPPRLPRPRPRPFMSPRP | -0.0241
RRIRQRPPRLPRPRPRPFPTPRP | -0.0177
RRIRQRPPRLPRPRPRPFQDPRP | -0.195
RRIRQRPPRLPRPRPRPFSGPRP | -0.0802
RRIRQRPPRLPRPRPRPFVPPRP | 0.0357
RRIRQRPPRLPRPRPRPFWTPRP | -0.166
RRIRQRPPRLPRPRPRPGAAPRP | 0.553
RRIRQRPPRLPRPRPRPGCCPRP | 0.202
RRIRQRPPRLPRPRPRPGCMPRP | 0.175
RRIRQRPPRLPRPRPRPGDRPRP | 0.132
RRIRQRPPRLPRPRPRPGDSPRP | -0.0573
RRIRQRPPRLPRPRPRPGFTPRP | -0.11
RRIRQRPPRLPRPRPRPGFVPRP | 0.217
RRIRQRPPRLPRPRPRPGHEPRP | 0.104
RRIRQRPPRLPRPRPRPGIAPRP | 0.719
RRIRQRPPRLPRPRPRPGIDPRP | 0.0179
RRIRQRPPRLPRPRPRPGKEPRP | 0.00212
RRIRQRPPRLPRPRPRPGKLPRP | -0.0396

Sequence | shrunken log2 fold change
RRIRQRPPRLPRPRPRPGNQPRP | 0.0157
RRIRQRPPRLPRPRPRPGPNPRP | -0.0457
RRIRQRPPRLPRPRPRPGPVPRP | -0.0186
RRIRQRPPRLPRPRPRPGSHPRP | -0.108
RRIRQRPPRLPRPRPRPGSYPRP | -0.2
RRIRQRPPRLPRPRPRPGTRPRP | 0.111
RRIRQRPPRLPRPRPRPGWMPRP | -0.115
RRIRQRPPRLPRPRPRPGWVPRP | -0.124
RRIRQRPPRLPRPRPRPHADPRP | -0.43
RRIRQRPPRLPRPRPRPHAPPRP | -0.0421
RRIRQRPPRLPRPRPRPHCEPRP | -0.0142
RRIRQRPPRLPRPRPRPHCHPRP | -0.164
RRIRQRPPRLPRPRPRPHCWPRP | -0.0628
RRIRQRPPRLPRPRPRPHETPRP | -0.0223
RRIRQRPPRLPRPRPRPHFAPRP | 0.0503
RRIRQRPPRLPRPRPRPHGAPRP | 0.0316
RRIRQRPPRLPRPRPRPHGRPRP | -0.0154
RRIRQRPPRLPRPRPRPHHFPRP | -0.0176
RRIRQRPPRLPRPRPRPHHLPRP | -0.122
RRIRQRPPRLPRPRPRPHIFPRP | 0.0297
RRIRQRPPRLPRPRPRPHMHPRP | -0.39
RRIRQRPPRLPRPRPRPHMKPRP | -0.0294
RRIRQRPPRLPRPRPRPHNMPRP | -0.283
RRIRQRPPRLPRPRPRPHNTPRP | -0.902
RRIRQRPPRLPRPRPRPHPNPRP | -0.389

Sequence | shrunken log2 fold change
RRIRQRPPRLPRPRPRPHQAPRP | -0.241
RRIRQRPPRLPRPRPRPHSEPRP | -0.0749
RRIRQRPPRLPRPRPRPHVNPRP | 0.0398
RRIRQRPPRLPRPRPRPHVVPRP | -0.086
RRIRQRPPRLPRPRPRPHWGPRP | 0.0433
RRIRQRPPRLPRPRPRPHWLPRP | -0.222
RRIRQRPPRLPRPRPRPHWYPRP | -0.0983
RRIRQRPPRLPRPRPRPHYAPRP | -0.0213
RRIRQRPPRLPRPRPRPHYCPRP | -0.0397
RRIRQRPPRLPRPRPRPHYIPRP | -0.298
RRIRQRPPRLPRPRPRPHYNPRP | -1.22
RRIRQRPPRLPRPRPRPICAPRP | 0.36
RRIRQRPPRLPRPRPRPICDPRP | -0.0181
RRIRQRPPRLPRPRPRPICSPRP | -0.0668
RRIRQRPPRLPRPRPRPIFYPRP | -0.418
RRIRQRPPRLPRPRPRPIHRPRP | -0.0654
RRIRQRPPRLPRPRPRPIIAPRP | 0.00878
RRIRQRPPRLPRPRPRPILYPRP | 0.0724
RRIRQRPPRLPRPRPRPIPPPRP | 0.0581
RRIRQRPPRLPRPRPRPIQWPRP | 0.34
RRIRQRPPRLPRPRPRPIRGPRP | -0.0547
RRIRQRPPRLPRPRPRPISFPRP | -0.0842
RRIRQRPPRLPRPRPRPISLPRP | -0.527
RRIRQRPPRLPRPRPRPITDPRP | 0.00271
RRIRQRPPRLPRPRPRPITLPRP | -0.418

Sequence | shrunken log2 fold change
RRIRQRPPRLPRPRPRPITMPRP | 0.00801
RRIRQRPPRLPRPRPRPIVHPRP | -0.265
RRIRQRPPRLPRPRPRPIVSPRP | -0.0135
RRIRQRPPRLPRPRPRPIWEPRP | 0.0296
RRIRQRPPRLPRPRPRPIYAPRP | -0.222
RRIRQRPPRLPRPRPRPIYGPRP | -0.00674
RRIRQRPPRLPRPRPRPKCFPRP | -0.25
RRIRQRPPRLPRPRPRPKDNPRP | -0.23
RRIRQRPPRLPRPRPRPKERPRP | -0.00138
RRIRQRPPRLPRPRPRPKFFPRP | -0.0285
RRIRQRPPRLPRPRPRPKFGPRP | 0.102
RRIRQRPPRLPRPRPRPKGHPRP | -0.139
RRIRQRPPRLPRPRPRPKGWPRP | 0.502
RRIRQRPPRLPRPRPRPKHFPRP | -0.0231
RRIRQRPPRLPRPRPRPKIDPRP | -0.146
RRIRQRPPRLPRPRPRPKKGPRP | 0.124
RRIRQRPPRLPRPRPRPKKIPRP | -0.0759
RRIRQRPPRLPRPRPRPKMMPRP | -0.082
RRIRQRPPRLPRPRPRPKMNPRP | -0.328
RRIRQRPPRLPRPRPRPKNGPRP | -0.159
RRIRQRPPRLPRPRPRPKNSPRP | -0.536
RRIRQRPPRLPRPRPRPKPTPRP | -0.0515
RRIRQRPPRLPRPRPRPKQVPRP | 0.0304
RRIRQRPPRLPRPRPRPKQYPRP | -0.359
RRIRQRPPRLPRPRPRPKRWPRP | 0.0413

Sequence | shrunken log2 fold change
RRIRQRPPRLPRPRPRPKSTPRP | -0.228
RRIRQRPPRLPRPRPRPKTEPRP | 0.104
RRIRQRPPRLPRPRPRPKTVPRP | -0.093
RRIRQRPPRLPRPRPRPKVYPRP | -0.177
RRIRQRPPRLPRPRPRPKYCPRP | 0.0636
RRIRQRPPRLPRPRPRPKYVPRP | 0.178
RRIRQRPPRLPRPRPRPLATPRP | 0.0953
RRIRQRPPRLPRPRPRPLCRPRP | -0.272
RRIRQRPPRLPRPRPRPLDLPRP | -0.276
RRIRQRPPRLPRPRPRPLGNPRP | -0.263
RRIRQRPPRLPRPRPRPLGRPRP | -0.00354
RRIRQRPPRLPRPRPRPLHWPRP | 0.0127
RRIRQRPPRLPRPRPRPLIAPRP | -0.124
RRIRQRPPRLPRPRPRPLICPRP | -0.0973
RRIRQRPPRLPRPRPRPLILPRP | -0.424
RRIRQRPPRLPRPRPRPLIQPRP | -0.228
RRIRQRPPRLPRPRPRPLLGPRP | 0.158
RRIRQRPPRLPRPRPRPLLQPRP | 0.212
RRIRQRPPRLPRPRPRPLLYPRP | -0.382
RRIRQRPPRLPRPRPRPLPGPRP | 0.0661
RRIRQRPPRLPRPRPRPLPHPRP | 0.137
RRIRQRPPRLPRPRPRPLPNPRP | 0.0261
RRIRQRPPRLPRPRPRPLRHPRP | 0.323
RRIRQRPPRLPRPRPRPLRMPRP | 0.483
RRIRQRPPRLPRPRPRPLRNPRP | 0.121
